Measurements taken from PMC7442826 (2020).
Blank lines part the entries; values can stand above or below the binder they belong to.

B2: EHBP1 bMERB domain (bMERB_(1060-1212), full-length bMERB domain) (domain or fragment)
chain: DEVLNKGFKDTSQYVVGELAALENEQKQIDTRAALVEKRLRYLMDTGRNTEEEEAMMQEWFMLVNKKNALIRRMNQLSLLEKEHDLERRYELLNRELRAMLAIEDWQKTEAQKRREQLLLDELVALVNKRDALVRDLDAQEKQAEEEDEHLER

Key:
[1] = target: EHBP1 bMERB domain L1156S (human, UniProt Q8NDI1-1 1060-1212, L1156S); test: ITC; GppNHp
[2] = target: EHBP1 bMERB domain Q1176A (human, UniProt Q8NDI1-1 1060-1212, Q1176A); test: ITC; GppNHp
[3] = target: EHBP1 bMERB domain N1187A (human, UniProt Q8NDI1-1 1060-1212, N1187A); test: ITC; GppNHp
[4] = target: EHBP1 bMERB domain L1182S (human, UniProt Q8NDI1-1 1060-1212, L1182S); test: ITC; GppNHp
[5] = target: EHBP1 bMERB domain L1179S (human, UniProt Q8NDI1-1 1060-1212, L1179S); test: ITC; GppNHp
[6] = target: EHBP1 bMERB domain R1189A (human, UniProt Q8NDI1-1 1060-1212, R1189A); test: ITC; GppNHp
[7] = target: Rab8a_(1-176_T72E) (phosphomimetic Rab8a) (human, UniProt P61006 1-176, T72E); test: ITC
EHBP1 CH domain D532A = EHBP1 CH domain D532A (human, UniProt Q8NDI1-1 440-550, D532 to alanine); test: ITC
EHBP1 CH domain M537A = EHBP1 CH domain M537A (human, UniProt Q8NDI1-1 440-550, M537 to alanine); test: ITC
EHBP1 CH domain Q542A = EHBP1 CH domain Q542A (human, UniProt Q8NDI1-1 440-550, Q542 to alanine); test: ITC
EHBP1 CH domain Y541A = EHBP1 CH domain Y541A (human, UniProt Q8NDI1-1 440-550, Y541 to alanine); test: ITC
[8] = target: B2; test: displacement by GppNHp Rab8a
[9] = target: EHBP1 full-length bMERB domain M1116A (human, UniProt Q8NDI1-1 1060-1212, M1116A); test: ITC
[10] = target: EHBP1 full-length bMERB domain M1103A (human, UniProt Q8NDI1-1 1060-1212, M1103 to alanine); test: ITC
[11] = target: B2; test: ITC

Sequence of EHBP1 bMERB domain R1189A (Q8NDI1 1060-1212 R1189A): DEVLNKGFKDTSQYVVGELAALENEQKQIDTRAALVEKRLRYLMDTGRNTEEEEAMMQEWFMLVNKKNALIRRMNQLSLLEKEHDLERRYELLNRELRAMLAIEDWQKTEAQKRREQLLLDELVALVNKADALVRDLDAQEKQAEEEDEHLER
Sequence of EHBP1 bMERB domain L1182S (Q8NDI1 1060-1212 L1182S): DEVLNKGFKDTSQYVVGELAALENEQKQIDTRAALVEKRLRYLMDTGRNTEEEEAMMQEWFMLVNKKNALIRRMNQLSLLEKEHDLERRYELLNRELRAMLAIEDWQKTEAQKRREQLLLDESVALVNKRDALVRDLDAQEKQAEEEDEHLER
Sequence of EHBP1 bMERB domain N1187A (Q8NDI1 1060-1212 N1187A): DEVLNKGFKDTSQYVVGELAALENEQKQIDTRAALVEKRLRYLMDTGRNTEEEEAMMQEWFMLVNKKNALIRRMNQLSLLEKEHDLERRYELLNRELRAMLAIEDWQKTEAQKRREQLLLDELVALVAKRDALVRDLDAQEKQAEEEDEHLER
Sequence of EHBP1 full-length bMERB domain M1103A (Q8NDI1 1060-1212 M1103A): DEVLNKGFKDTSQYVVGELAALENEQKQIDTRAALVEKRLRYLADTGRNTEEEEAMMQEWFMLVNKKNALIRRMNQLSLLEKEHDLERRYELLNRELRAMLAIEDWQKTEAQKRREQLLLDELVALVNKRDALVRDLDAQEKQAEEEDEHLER
Sequence of EHBP1 bMERB domain L1179S (Q8NDI1 1060-1212 L1179S): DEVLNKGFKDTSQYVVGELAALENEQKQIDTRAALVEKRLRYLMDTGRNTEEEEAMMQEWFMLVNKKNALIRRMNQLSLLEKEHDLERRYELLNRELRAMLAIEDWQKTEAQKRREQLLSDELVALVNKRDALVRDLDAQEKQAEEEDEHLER
Sequence of EHBP1 bMERB domain L1156S (Q8NDI1 1060-1212 L1156S): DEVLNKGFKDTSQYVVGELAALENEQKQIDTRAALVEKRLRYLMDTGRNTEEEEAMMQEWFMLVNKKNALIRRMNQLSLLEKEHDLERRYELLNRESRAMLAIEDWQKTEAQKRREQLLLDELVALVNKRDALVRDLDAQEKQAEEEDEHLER
Sequence of EHBP1 full-length bMERB domain M1116A (Q8NDI1 1060-1212 M1116A): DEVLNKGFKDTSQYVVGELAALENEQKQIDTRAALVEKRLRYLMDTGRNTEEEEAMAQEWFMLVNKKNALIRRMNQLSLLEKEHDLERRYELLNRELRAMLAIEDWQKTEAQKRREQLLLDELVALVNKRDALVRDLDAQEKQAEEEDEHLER
Sequence of EHBP1 bMERB domain Q1176A (Q8NDI1 1060-1212 Q1176A): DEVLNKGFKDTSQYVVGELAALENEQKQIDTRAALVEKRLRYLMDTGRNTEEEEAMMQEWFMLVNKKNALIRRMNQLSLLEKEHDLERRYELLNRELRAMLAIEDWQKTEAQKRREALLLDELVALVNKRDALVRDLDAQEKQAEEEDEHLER
Sequence of EHBP1 CH domain M537A (Q8NDI1 1060-1212, stated change not applied): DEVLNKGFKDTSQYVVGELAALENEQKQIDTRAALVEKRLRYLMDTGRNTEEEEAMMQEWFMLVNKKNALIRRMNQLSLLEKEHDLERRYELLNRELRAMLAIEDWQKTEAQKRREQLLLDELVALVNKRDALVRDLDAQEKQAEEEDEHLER
Sequence of EHBP1 CH domain Q542A (Q8NDI1 1060-1212, stated change not applied): as above
Sequence of EHBP1 CH domain D532A (Q8NDI1 1060-1212, stated change not applied): as above
Sequence of EHBP1 CH domain Y541A (Q8NDI1 1060-1212, stated change not applied): as above

Binder: B2
- Kd [7]: 400 nM
- Kd (EHBP1 CH domain D532A): 43.5 µM
- Kd (EHBP1 CH domain M537A): 7.6 µM
- Kd (EHBP1 CH domain Q542A): 3.85 µM
- Kd (EHBP1 CH domain Y541A): 5.65 µM

B3: Cy3 labeled EHBP1 CH domain (domain or fragment)
chain: GRKPNASQSLLVWCKEVTKNYRGVKITNFTTSWRNGLSFCAILHHFRPDLIDYKSLNPQDIKENNKKAYDGFASIGISRLLEPSDMVLLAIPDKLTVMTYLYQIRAHFSGQ
modifications: Cy3 on the N-terminus
- koff [8]: 165 s⁻¹

B4: EHBP1 CH (calponin homology) domain (domain or fragment)
chain: GRKPNASQSLLVWCKEVTKNYRGVKITNFTTSWRNGLSFCAILHHFRPDLIDYKSLNPQDIKENNKKAYDGFASIGISRLLEPSDMVLLAIPDKLTVMTYLYQIRAHFSGQ
- Kd [9]: 15.8 µM
- Kd [10]: 34.7 µM

Next, values leading:

- Kd [1]: 14.3 µM
- Kd [2]: 330 nM
- Kd [3]: 1500 nM
- Kd [4]: 3.04 µM
- Kd [5]: 3.23 µM
- Kd [6]: 6 µM
B1: Rab8a_(1-176) (human Rab8a G-domain) (domain or fragment)
chain: MAKTYDYLFKLLLIGDSGVGKTCVLFRFSEDAFNSTFISTIGIDFKIRTIELDGKRIKLQIWDTAGQERFRTITTAYYRGAMGIMLVYDITNEKSFDNIRNWIRNIEEHASADVEKMILGNKCDVNDKRQVSKERGEKLALDYGIKFMETSAKANINVENAFFTLARDIKAKMDKK

- Kd [11]: 320 nM
B5: Rab10_(1-175) (human Rab10 G-domain) (domain or fragment)
chain: MAKKTYDLLFKLLLIGDSGVGKTCVLFRFSDDAFNTTFISTIGIDFKIKTVELQGKKIKLQIWDTAGQERFHTITTSYYRGAMGIMLVYDITNGKSFENISKWLRNIDEHANEDVERMLLGNKCDMDDKRVVPKGKGEQIAREHGIRFFETSAKANINIEKAFLTLAEDILRKTP
